We go through three molecules from US20250179187A1 (REJUVERON SENESCENCE THERAPEUTICS, published 2025).

Assay [1] addresses T1, mouse PD-L2 on CHO-K1 cells over-expressing mPD-L2 GFP (mouse, UniProt Q9WUL5 20-247).
T1 construct: whole, on cells; also called cellular mPD-L2; not shown: GFP of the mPD-L2 GFP construct
T1 sequence (looked up): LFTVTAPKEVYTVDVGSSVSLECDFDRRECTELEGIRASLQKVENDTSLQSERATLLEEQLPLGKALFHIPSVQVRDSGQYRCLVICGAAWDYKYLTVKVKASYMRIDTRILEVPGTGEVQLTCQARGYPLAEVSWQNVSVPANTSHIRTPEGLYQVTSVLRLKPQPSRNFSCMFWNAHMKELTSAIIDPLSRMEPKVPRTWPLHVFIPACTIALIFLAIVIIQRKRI
Description: flow cytometry on CHO-K1 cells overexpressing mPD-L2, mean fluorescence. On the procedure: (§1) CHO-K1 cells over-expressing either hPDL2-GFP or mPD-L2 GFP were detached, washed in phosphate buffered saline (PBS) and adjusted to a cell concentration of around 1 million cells in cytometry buffer (CB, PBS containing 1% […]). Around 80,000 cells were then distributed into a round-bottom 96 well plate and the plate was centrifuged for 3 minutes at 400 g at 4° C. and supernatant discarded. Appropriate antibody concentrations in 50 microliter volumes were added to the wells and incubated for 30 minutes at 6-8° C. The plate was washed 3 times with PBS and relevant secondary antibodies (either AlexaFluor 647 Goat anti-Mouse IgG (H+L) (Invitrogen A21235/lot 1915807) or AlexaFluor 647 Goat anti-Rat IgG (H+L) (Invitrogen A21247/lot 1921562) were added for 30 minutes at 4° C. Cells were again washed with PBS two times, resuspended in CB and analyzed in either the Sony ID7000 Spectral Cell analyzer (Sony) or the GALLIOS Flow Cytometer (Beckman-Coulter) was used. EC₅₀ was calculated using the Sigmoidal 4PL equation of the GraphPad Prism-9 software.
On the technique in general: A flow cytometer gives signals particle by particle.

Assay [2] addresses T2, recombinant human PD-L2 (human PD-L2 antigen) (human, UniProt Q9BQ51 20-219, limits assumed).
T2 construct: The Biacore analyte and the ELISA antigen are only called human PD-L2 antigen / recombinant hPD-L2; Whole entry named; also called hPD-L2; recombinant hPD-L2
T2 sequence (looked up): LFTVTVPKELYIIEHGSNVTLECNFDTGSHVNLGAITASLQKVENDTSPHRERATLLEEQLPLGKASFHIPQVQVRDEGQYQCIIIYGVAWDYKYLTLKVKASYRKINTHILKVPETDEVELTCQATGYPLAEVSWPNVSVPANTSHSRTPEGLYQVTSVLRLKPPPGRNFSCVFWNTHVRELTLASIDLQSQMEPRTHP
Briefly: SPR (Biacore 8K), single cycle kinetics, antibody in culture supernatant, human PD-L2 antigen. An excerpt: Table 2: Single cycle kinetic parameters of chimeric (VH0/VK0) and humanized variants (tested as cell culture supernatants) binding to human PD-L2 antigen as determined using the Biacore 8K. As used herein, the term “KD” is intended to refer to the dissociation equilibrium constant of a particular antibody-antigen interaction, ka is the binding rate constant and kd is the dissociation rate constant. The binding affinity of antibodies of the disclosed invention may be measured or determined by standard antibody-antigen assays. The relative KD was calculated by dividing the KD of the humanized variant by that of the VH0/VK0 assayed in the same experiment.

Assay [3] deals with T3, human PD-L2 on CHO-K1 cells of the Promega PD-1/PD-L2 blockade bioassay (human, UniProt Q9BQ51 20-273).
T3 sequence (looked up): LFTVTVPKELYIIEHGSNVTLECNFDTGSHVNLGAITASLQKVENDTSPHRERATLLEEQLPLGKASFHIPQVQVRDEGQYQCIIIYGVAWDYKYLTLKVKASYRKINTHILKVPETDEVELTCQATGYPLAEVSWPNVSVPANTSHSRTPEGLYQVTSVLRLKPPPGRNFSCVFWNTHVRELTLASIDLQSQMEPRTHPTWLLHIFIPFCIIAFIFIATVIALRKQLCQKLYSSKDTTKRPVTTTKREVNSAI
Description: cell-based or functional assay.

Assay [4] concerns the target T4, recombinant mouse PD-L2 (Sino Biological, cat 50804-M08H-B) (mouse, UniProt Q9WUL5 20-219).
T4 construct: Bought protein; also called recombinant mPD-L2; recombinant mPDL2
T4 sequence (looked up): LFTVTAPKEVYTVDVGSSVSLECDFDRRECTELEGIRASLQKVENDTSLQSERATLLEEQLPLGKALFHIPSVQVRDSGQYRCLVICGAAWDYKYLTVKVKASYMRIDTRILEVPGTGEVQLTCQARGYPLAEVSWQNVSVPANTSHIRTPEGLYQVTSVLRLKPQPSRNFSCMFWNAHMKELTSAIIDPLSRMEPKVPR
Briefly: ELISA on recombinant mPD-L2 according to the legend; the y axis on the sheet reads 'Mean fluorescent unit'. In general terms: In an ELISA, binding on a coated surface is turned into a signal by an enzyme label.

For assay [5], the target named is T5, human PD-L2 on CHO-K1 cells over-expressing hPDL2-GFP (human, UniProt Q9BQ51 20-273).
T5 construct: whole, on cells; also called cellular hPD-L2; cellular PDL2; not shown: GFP of the hPDL2-GFP construct
T5 sequence (looked up): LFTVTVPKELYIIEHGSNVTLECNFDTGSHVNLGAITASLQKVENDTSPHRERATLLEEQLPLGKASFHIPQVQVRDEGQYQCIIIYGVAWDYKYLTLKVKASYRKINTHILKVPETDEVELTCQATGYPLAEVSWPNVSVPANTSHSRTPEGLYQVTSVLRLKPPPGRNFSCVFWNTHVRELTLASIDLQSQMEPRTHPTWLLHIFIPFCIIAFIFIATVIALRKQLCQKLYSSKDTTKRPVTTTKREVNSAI
Description: flow cytometry on CHO-K1 cells expressing hPD-L2, median fluorescence. The protocol:
as §1

The target of assay [6] is T5, human PD-L2 on CHO-K1 cells …. Briefly: binding to cellular PDL2 (FIG. 1A by the text; flow cytometry on CHO-K1 cells expressing hPD-L2). On the procedure: as §1
The target is the same in assay [7]. Description: flow cytometry blocking assay: antibody titrated against recombinant hPD-1 (constant 15 micrograms/mL) binding to CHO-K1 cells expressing hPD-L2; signal falls with the antibody; column head on the sheet is EC50. The protocol: CHO-K1 cells over-expressing either hPDL2-GFP were detached, washed in phosphate buffered saline (PBS) and adjusted to a cell concentration of around 1 million cells in CB. Around 80,000 cells were then distributed into a round-bottom 96 well plate and the plate was centrifuged for 3 minutes at 400 g at 4° C. and supernatant discarded. A constant concentration of ligand recombinant hPD-1 ligand (Sino Biological 10377-H08H/lot LC13JA2207) of 15 micrograms/mL was incubated with respective concentration of antibody, added to the cells and incubated for 30 min at 6-8° C. Cells were washed 3 times in PBS and then incubated with a rabbit polyclonal anti-His (Abcam Ab1187/lot GR3369369-1) in CB and subsequently washed three times in PBS. Cells were then incubated with a labeled anti-rabbit secondary (AlexaFluor 647 Goat anti-Rabbit IgG (H+L) (Invitrogen A21244/lot 1910774) for 15 minutes at 4° C., washed two times in PBS, resuspended in CB and analyzed in the Sony ID7000 Spectral Cell analyzer (Sony).

Assay [8] deals with T3, human PD-L2 on CHO-K1 cells of the …. Description: cell-based or functional assay. The source holds these as a separate data set.

Like-named read-outs stand apart in the source and are kept apart here.

B1: VH0/VK0 chimeric antibody (hIgG1 backbone) (antibody, V domains shown)
VH: QVQLQQSGAELVRPGTSVKVSCKASGYAFSNYFIEWVKQRPGQGLEWIGLNIPGSGGSNYAEKFKGKATLTADKSSSTAYMQLSSLTSEDSAVYFCARRRLPPDWYFDVWGTGTTVTVSS
VL: DVVMTQTPLSLPVSLGDQASISCRSSQSLVHSDGNTYLHWYLQKPGQSPKLLIYKVSNRFSGVPDRFSGSGSGTDFTLKISRVEAEDLGVYFCSQSTHVPWTFGGGTKLEIK
notes: Mouse variable regions on human IgG1 backbone, expressed in CHO cells; also called chimeric anti-PDL2 lead mAb VH0/VK0
In turn, B1 came in with a half-maximal effective concentration (EC50) in assay [1] of 0.16 nM. Also, in assay [2], the Kd amounted to 0.0358 nM, the “Relative KD (KD of variant / KD of VH0/VK0)” value turned out to be 1, the koff stood at 9.72e-05 s⁻¹ and the kon is 2.72e+06 M⁻¹ s⁻¹. Also, in assay [3], the “EC50 (PD-1/PD-L2 blockade reporter assay, luminescence)” value amounted to 0.64 nM.

B2: VH0/VK0-mIgG1 (parental murine monoclonal antibody VHP/VKP on mIgG1 backbone) (antibody, V domains shown)
VH: QVQLQQSGAELVRPGTSVKVSCKASGYAFSNYFIEWVKQRPGQGLEWIGLNIPGSGGSNYAEKFKGKATLTADKSSSTAYMQLSSLTSEDSAVYFCARRRLPPDWYFDVWGTGTTVTVSS
VL: DVVMTQTPLSLPVSLGDQASISCRSSQSLVHSDGNTYLHWYLQKPGQSPKLLIYKVSNRFSGVPDRFSGSGSGTDFTLKISRVEAEDLGVYFCSQSTHVPWTFGGGTKLEIK
notes: Murine IgG1 backbone; also called parental mouse antibody
For the molecule B2, the “EC50 (read off the curve)” value in assay [4] was roughly 0.5 nM. The EC50 in assay [5] is 0.538 nM; in assay [6] it was 0.219 nM; in assay [7] it was 0.6 nM. Moreover, the “EC50 (PD-1/PD-L2 blockade reporter assay, luminescence)” value in assay [8] turned out to be 1.11 nM.

B3: VH8/VK2 (antibody, V domains shown)
VH: QVQLVQSGAEVKKPGSSVKVSCKASGYAFSNYFIEWVKQPPGKGLEWIGLNIPGSGGSNYAEKFKGRATITADKSTSTAYMELSSLRSEDTAVYYCARRRLPPDWYFDVWGQGTTVTVSS
VL: DVVMTQSPLSLPVTLGQPASISCRSSQSLVHSDGNTYLHWYQQKPGQPPKLLIYKVSNRFSGVPDRFSGSGSGTDFTLKISRVEAEDVGVYYCSQSTHVPWTFGGGTKVEIK
notes: hIgG1 backbone, CHO expressed
With B3, a half-maximal response in assay [1] (EC50) required 0.23 nM. In addition, in assay [2], the Kd amounted to 0.0528 nM, the “Relative KD (KD of variant / KD of VH0/VK0)” value turned out to be 1.47 and the koff was 0.000121 s⁻¹. The “EC50 (PD-1/PD-L2 blockade reporter assay, luminescence)” value in assay [3] amounted to 1.29 nM.

By EC50 is commonly meant the midpoint of the concentration-response curve. For orientation: Kd means the concentration at which binding is half-saturated. As usually defined, the koff is a measure of how fast the partners let go of each other. By kon is commonly meant the rate constant with which the complex forms. The term EC50 (read off the curve) denotes the concentration at which the effect is half-maximal.
